Reference: patent publication US20020076765A1 (IOWA STATE UNIVERSITY RESEARCH FOUNDATION, published 2002)

B1: bovine tumor necrosis factor-alpha (TNF-alpha) (ligand, UniProt Q06599 78-234, looked up)
chain: LRSSSQASSNKPVAHVVADINSPGQLRWWDSYANALMANGVKLEDNQLVVPADGLYLIYSQVLFRGQGCPSTPLFLTHTISRIAVSYQTKVNILSAIKSPCHRETPEWAEAKPWYEPIYQGGVFQLEKGDRLSAEINLPDYLDYAESGQVYFGIIAL
notes: Not purified; The whey samples served as the source of bovine TNF-alpha; also called bovine TNF-α; bovine TNF
B2: soluble bovine tumor necrosis factor receptor-I (TNF-RI) (receptor)
chain: LVPHPGDLEKRESPCPQGKYNHPQNSTICCTKCHKGTYLYNDCPGPGRDTDCRVCAPGTYTALENHLRRCLSCSRCRDEMFQVEISPCVVDRDTVCGCRKNQYREYWGETGFRCLNCSLCPNGTVNIPCQERQDTICHCHMGFFLKGAKCISCHDCKNKECEKLCPTRPSTGKDSQDPGTT

Assays:
[1] = target: B2; assay: inferred from the TNF cytotoxicity inhibition assay on WEHI 164 cells; no direct binding assay
[2] = target: B1; assay: cell-based or functional assay

Binder | binding result [1] | fold potency at blocking bovine TNF-α, against MAb BC9 [2]
B1 | binds | 
B2 |  | > 2 fold (vs MAb BC9)
